In publication PMC4582189:

How the values were obtained:
[1] = target: T1, CD13 on the surface of mouse articular chondrocytes (mouse (endogenous in primary articular chondrocytes)) (UniProt P97449)
T1 sequence: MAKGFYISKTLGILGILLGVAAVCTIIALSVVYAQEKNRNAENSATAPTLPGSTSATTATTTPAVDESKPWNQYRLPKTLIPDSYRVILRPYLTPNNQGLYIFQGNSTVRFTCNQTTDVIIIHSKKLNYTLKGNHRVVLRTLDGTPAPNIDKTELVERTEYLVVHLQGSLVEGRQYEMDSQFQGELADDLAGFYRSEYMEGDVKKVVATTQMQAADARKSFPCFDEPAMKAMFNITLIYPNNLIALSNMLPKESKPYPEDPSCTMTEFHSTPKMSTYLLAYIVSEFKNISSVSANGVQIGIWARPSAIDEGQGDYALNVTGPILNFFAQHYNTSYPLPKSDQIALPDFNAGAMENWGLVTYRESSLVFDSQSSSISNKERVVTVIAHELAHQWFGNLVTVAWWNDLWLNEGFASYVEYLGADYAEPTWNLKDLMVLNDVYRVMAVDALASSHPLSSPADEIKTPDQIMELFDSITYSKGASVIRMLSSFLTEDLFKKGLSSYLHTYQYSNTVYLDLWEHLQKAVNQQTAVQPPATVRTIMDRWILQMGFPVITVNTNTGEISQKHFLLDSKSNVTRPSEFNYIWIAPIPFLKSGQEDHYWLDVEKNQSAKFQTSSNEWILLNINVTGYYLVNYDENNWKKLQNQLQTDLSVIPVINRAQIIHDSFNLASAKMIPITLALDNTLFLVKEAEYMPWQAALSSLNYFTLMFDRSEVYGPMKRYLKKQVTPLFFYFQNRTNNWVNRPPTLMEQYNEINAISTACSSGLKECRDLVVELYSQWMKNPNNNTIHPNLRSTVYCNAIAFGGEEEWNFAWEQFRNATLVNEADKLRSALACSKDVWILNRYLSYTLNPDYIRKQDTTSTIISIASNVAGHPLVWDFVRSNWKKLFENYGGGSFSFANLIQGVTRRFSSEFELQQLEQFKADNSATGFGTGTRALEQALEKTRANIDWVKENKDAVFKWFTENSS

[2] = target: Human recombinant CD13 (human) (UniProt P15144)
UniProt P15144, sequence (P15144 whole entry): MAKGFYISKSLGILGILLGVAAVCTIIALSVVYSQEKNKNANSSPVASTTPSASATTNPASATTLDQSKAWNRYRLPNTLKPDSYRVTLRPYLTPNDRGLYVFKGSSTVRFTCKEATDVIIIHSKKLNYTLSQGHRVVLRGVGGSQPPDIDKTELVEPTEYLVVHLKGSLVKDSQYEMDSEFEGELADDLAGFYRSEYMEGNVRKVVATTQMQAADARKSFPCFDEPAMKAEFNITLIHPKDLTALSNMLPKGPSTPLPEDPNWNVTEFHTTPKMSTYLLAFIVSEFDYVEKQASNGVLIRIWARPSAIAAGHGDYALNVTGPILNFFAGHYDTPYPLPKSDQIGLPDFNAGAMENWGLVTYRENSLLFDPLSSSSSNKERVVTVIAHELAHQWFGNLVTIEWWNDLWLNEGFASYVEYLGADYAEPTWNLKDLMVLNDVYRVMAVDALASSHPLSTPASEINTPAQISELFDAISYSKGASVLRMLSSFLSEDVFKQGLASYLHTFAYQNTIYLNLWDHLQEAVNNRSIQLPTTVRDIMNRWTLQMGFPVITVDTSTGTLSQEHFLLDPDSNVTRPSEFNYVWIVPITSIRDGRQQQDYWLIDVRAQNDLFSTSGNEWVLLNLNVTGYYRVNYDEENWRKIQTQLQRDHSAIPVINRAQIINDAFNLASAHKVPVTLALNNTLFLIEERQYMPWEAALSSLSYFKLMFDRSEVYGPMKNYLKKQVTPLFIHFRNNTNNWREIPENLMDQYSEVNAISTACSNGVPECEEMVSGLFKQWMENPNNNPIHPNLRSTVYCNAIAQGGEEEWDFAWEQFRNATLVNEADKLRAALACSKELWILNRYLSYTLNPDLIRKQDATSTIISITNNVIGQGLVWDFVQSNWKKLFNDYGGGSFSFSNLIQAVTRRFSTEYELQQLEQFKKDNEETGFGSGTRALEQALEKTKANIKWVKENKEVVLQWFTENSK

[3] = target: Human recombinant CD13 (human) (UniProt P15144); experiment: SPR; Biacore 3000; human recombinant CD13 amine-coupled to a CM5 chip (11,949 RU, 10 mM sodium acetate pH 5.0); analytes in HBS-EP (10 mM HEPES pH 7.4, 150 mM NaCl, 3 mM EDTA, 0.005% P20), 5 µl/min, 5 min injection, 8 min dissociation; 14-3-3ε 10 µM, antibodies 1 µg/ml; kinetics with 0, 5, 7.5, 10, 15, 20 µM 14-3-3ε; blank surface subtracted
[4] = target: T1, CD13 on the surface of mouse articular chondrocytes (mouse (endogenous in primary articular chondrocytes)); remark: listed apart in the source

Recombinant human 14-3-3ε (from UniProt P62258 1-255) (natural protein)
decrease of 14-3-3ε (1 µg/ml)-induced MMP-13 mRNA expression (qRT-PCR) in murine chondrocytes by anti-CD13 blocking antibody AB108310, 1 and 5 µg/ml (47% to 88%) [1]: 88% | decrease of 14-3-3ε (1 µg/ml)-induced MMP-13 release (ELISA) in murine chondrocytes by anti-CD13 blocking antibody AB108310, 1 and 5 µg/ml (29% to 32%, P>0.05) [1]: 32% | inhibition of 14-3-3ε (1 µg/ml)-induced MMP-3 mRNA expression (qRT-PCR) in murine chondrocytes by anti-CD13 blocking antibody AB108310, 1 and 5 µg/ml (64% to 90%) [1]: 90% | inhibition of 14-3-3ε (1 µg/ml)-induced MMP-3 protein release (ELISA) in murine chondrocytes by anti-CD13 blocking antibody AB108310, 1 and 5 µg/ml (61% to 87%) [1]: 87% | decrease of 14-3-3ε-induced MMP-3 mRNA expression (qRT-PCR) in human osteoarthritis chondrocytes (endogenous human CD13) by anti-CD13 blocking antibody SJ1D1, 1 µg/ml [2]: 43% | decrease of 14-3-3ε-induced MMP-3 protein release (ELISA) in human osteoarthritis chondrocytes (endogenous human CD13) by anti-CD13 blocking antibody SJ1D1, 1 µg/ml [2]: 59% | Kd [3]: 2.45 µM | response (resonance units) at 10 µM [3]: 78 RU | decrease of 14-3-3ε (1 µg/ml)-induced MMP-13 mRNA synthesis (qRT-PCR) in mouse chondrocytes by the synthetic CD13 peptide EFNpYVW, 0.5 and 5 µg/ml (30% to 56%) [4]: 56% | inhibition of 14-3-3ε (1 µg/ml)-induced MMP-3 mRNA production (qRT-PCR) in mouse chondrocytes by the synthetic CD13 peptide EFNpYVW, 0.5 and 5 µg/ml (48% to 62%) [4]: 62%
